Data reported in publication PMC7210939, “ABCG2 transports anticancer drugs via a closed-to-open switch” (Nature Communications, 2020).

Molecular target: T1, Wild-type human ABCG2 with an N-terminal GFP tag (human, UniProt Q9UNQ0)
T1 construct: ABCG2, human, wild type; also called GFP-ABCG2; WT; not shown: GFP, N-terminal, kept
Experiment: flow cytometry on cells; 5D3 antibody shift assay: stable GFP-ABCG2 HEK293F cells, 1 ug/mL 5D3 in PBS with 0.5% BSA, 37 °C 45 min, with or without MXN, SN38, imatinib or Ko143; goat-anti-mouse IgG-PE; gated on high GFP
Settings: one partner purified

T1 sequence (Q9UNQ0 whole entry): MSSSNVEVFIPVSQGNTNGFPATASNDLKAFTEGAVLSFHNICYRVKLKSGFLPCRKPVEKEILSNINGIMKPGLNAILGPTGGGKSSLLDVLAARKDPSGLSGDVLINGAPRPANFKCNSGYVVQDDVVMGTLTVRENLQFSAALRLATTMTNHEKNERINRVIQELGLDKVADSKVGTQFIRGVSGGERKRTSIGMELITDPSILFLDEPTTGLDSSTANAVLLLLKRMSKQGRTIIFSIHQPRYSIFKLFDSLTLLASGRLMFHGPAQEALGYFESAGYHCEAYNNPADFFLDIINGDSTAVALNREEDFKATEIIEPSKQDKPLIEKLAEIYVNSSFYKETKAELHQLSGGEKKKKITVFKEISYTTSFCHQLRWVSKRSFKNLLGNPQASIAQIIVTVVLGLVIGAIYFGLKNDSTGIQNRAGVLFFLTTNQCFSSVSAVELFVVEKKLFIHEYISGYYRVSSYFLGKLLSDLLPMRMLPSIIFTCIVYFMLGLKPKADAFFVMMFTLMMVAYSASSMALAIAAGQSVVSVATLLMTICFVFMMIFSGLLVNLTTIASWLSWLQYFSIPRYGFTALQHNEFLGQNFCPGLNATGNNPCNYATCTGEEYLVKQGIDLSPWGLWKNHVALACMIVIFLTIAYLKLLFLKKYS

binding result: binds
B1: 5D3 antibody (antibody, V domains shown)
VH: QVQLQESGPGLVKPSQSLSLTCTVTGFSITSDYAWNWIRQFPGKKLEWMGYINFDGGTTYNPSLRGRISITRDTSKNQFFLQLRSVTPEDTATYYCATFYGAKGTLDYWGQGTSVTVSS
VL: DIVLTQSPSSFSVSLGDRVTISCKASGYILNRLAWYQQKPGNAPRLLISGATSLETGFPSRFSGTGSGKDYTLSISSLQTEDVGTYYCQQYWSTPWTFGGGTKLEIR
notes: the PDB entry holds the Fab only; also called conformation specific 5D3 antibody
